# Results reported in patent publication US6379665B1, “Phospholipase D polypeptide and DNA sequences” (Onyx Pharmaceuticals, Inc., priority 1996, dated 2002).
# B1: mPLD2: murine phospholipase D2, approximately 932 amino acid protein, SEQ ID NO:8 (protein, UniProt P97813 1-933, looked up)
# Phospholipase D2: MTVTQKNLFPYGDYLNSSQLHMEPDEVDTLREGEDPADRMHPYLAIYDLQPLKAHPLVFAPGVPVIAQVVGTERYTSGSKVGTCTLYSVRLTHGDFTWTTKKKFRHFQELHRDLQRHKVLMSLLPLARFAVTHSPAREAAAEDIPSLPRGGSEGSARHTASKQKYLENYLNRLLTMSFYRNYHAMTEFLEVSQLSFIPDLGSKGLEGVIRKRSGGHRVPGFTFCGRDQVCYRWSKRWLVVKDSFLLYMRPETGAISFVQLFDPGFEVQVGKRSTETRYGVRIDTSHRSLILKCSSYRQARWWGQEITELAQGSGRDFLQLHQHDSYAPPRPGTLARWFVNGAGYFAAVADAILRAQEEIFITDWWLSPEIYLKRPAHSDDWRLDIMLKRKAEEGVRVSILLFKEVELALGINSGYSKRTLMLLHPNIKVMRHPDLVTLWAHHEKLLVVDQVVAFLGGLDLAFGRWDDVQYRLTDLGDPSEPVHLQTPTLGSDPAATPDLSHNQFFWLGKDYSNLITKDWVQLDRPFEDFIDRETTPRMPWRDVGVVVHGVAARDLARHFIQRWNFTKTTKARYKTPLYPYLLPKSTSTANNLPFMIPGGQCATVQVLRSVDRWSAGTLENSILNAYLHTIRESQHFLYIENQFFISCSDGRTVLNKVGDEIVDRILKAHEQGQCFRVYLLLPLLPGFEGDISTGGGNSIQAILHFTYRTLCRGEHSILHRLKAAMGTAWRDYMSICGLRTHGELGGHPISELIYIHSKMLIADDRTVIIGSANINDRSLLGKRDSELAILIKDTEMEPSLMDGVEYQAGRFALSLRKHCFSVILGANTWPDLDLRDPVCDDFFQLWQETAENNATIYEQIFRCLPSNATRSLRALREYVAVESLATVSPSLAQSELAHIQGHLVHFPLKFLEDESLLPPLGSKEGMIPLEVWT
# System: COS-7 cells
# Assay: standard headgroup assay of extracts of COS-7 cells transfected with mPLD2
# Format: biochemical
# Conditions: pCGN expression vector
# Description: Human PLD1a was also expressed in COS-7 cells. A fragment of the hPLD1a cDNA encoding the entire open reading frame (nucleotides 93 through 3603 of the cDNA) was subcloned in-frame downstream of the cytomegalovirus promoter and the Flu epitope tag in the mammalian expression vector pCGN. COS-7 cells were transfected with 3 g of the resulting plasmid, pFlu-hPLD1, using lipofectamine (Life Technologies, Inc.). Forty-eight hours later, the cells were assayed for PLD activity in the standard headgroup assay referenced below. The time course of choline release varied linearly over time and in proportion to the amount of protein added.
# mPLD2 activity was assessed as described in Example 3 for hPLD1. The mPLD2 protein coding sequence was subcloned in pCGN, an expression vector containing a CMV promoter, flu-epitope tag and an SV40 polyadenylation signal sequence. See Example 3. […] The protein coding sequence of mPLD2 was also subcloned in a baculovirus vector following the protocol of Example 3. mPLD2 activity was successfully detected using the procedures described in Example 3.
molecule,measurement,value
B1,PLD activity in transfected COS-7 cell extracts,far above COS-7 background levels
